Test results as given in the nanobody polyreactivity screen of Harvey et al. (2022).

Experiment: yeast display, Sf9 membrane polyspecificity reagent, FACS + sequencing; frameworks hold sequencing errors
How it was run: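 After 36–48 hours of galactose induction, yeast (Saccharomyces cerevisiae BJ5465) displaying a synthetic nanobody library were stained at 4 °C for 1 hour with 10% biotinylated, detergent-solubilized Sf9 membrane reagent. Streptavidin microbeads enriched the stained cells before FACS sorting into low and high (top ~1%) gates on anti-HA and streptavidin fluorescence. Each clone's polyreactivity label reflects its gate of origin.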

| Sequence | polyreactivity (PSR sort gate) |
| --- | --- |
| QVQLVESGGGLVQAGGSLRLSCAASGIIFNPYALGWYRHAPGKERELVATISRGGRTNYADSVKGRFTISRDNAKNTVYLQLHSLKPEDTAVYYCNKTASGRYHYDYWGQGTQVTVSS | low polyreactivity |
| QVQLVESGGGLVQAGGSLRLSCAASGIIFNSNAMGWYRQAPGKERELVAAISVSGGSTYYADSVKGRFTISRDNAKNTVYLQMYSLIPEDTAVYYCNARSLYPWRWKKEYGHWGQGTQVTVSS | high polyreactivity |
| QVQLVESGGGLVQAGGSLRLSCAASGIIFNSYSMGLYRHAPGKERELVAAITYSGTRTYYADSVKGRFTISRDNAKNTVYLQMNCLKPEDTAVYYCNAVTGRGRTITQYDSWGQGTQVTVSS | high polyreactivity |
| QVQLVESGGGLVQAGGSLRLSCAASGIIFNTYAMGWYRQAPGKERELVAAIDSRDASTYADSVKGRFTISRDNAKNTVYLQMNSLKPEDTAVYYCAATHIVDLISEVYYWGQGTQVTVSS | low polyreactivity |
| QVQLVESGGGLVQAGGSLRLSCAASGIIFNTYAMGWYRQAPGKERELVAAIDSRDASTYADSVKGRFTISRDNAKNTVYVQMNSLKPEDTAVYYCNARIESYWLDFDYWGQGTQVTVSS | low polyreactivity |
| QVQLVESGGGLVQAGGSLRLSCAASGIIFPFYAMGWYRQAPGKEREFVAAITSGDDTYYADSVKGRFTISRDNAKNTVYLQMNSLKPEDTAVYYCNKRLYIAGYWPQLYYIMDYWGQGTQVTVSS | low polyreactivity |
| QVQLVESGGGLVQAGGSLRLSCAASGIIFPGYAMGLYRQAPGKERELVAAISRSGASTYYADSVKGRFTISRDNAKNTVYLQMNSLKPEDTEVYYCAAEWYLGGEYRRYDYWGQGTQVTVSS | high polyreactivity |
| QVQLVESGGGLVQAGGSLRLSCAASGIIFPNYAMGWYRPAPGKERELVAAIDDDASTTYADSVKGRFTISRDNAKNTVYLQMNSLKPEDTAVYYFAADGFDWYDWRWTYDYWGQGTQVTVSS | high polyreactivity |
| QVQLVESGGGLVQAGGSLRLSCAASGIIFPWSTMGWYRQAPGKERELVAAISSGGRTNYADSVKGRFTISRDNAKNTVYLQMNSLKPEDTAVYYCAAKYYRDRDWGQGTQVTVSS | high polyreactivity |
| QVQLVESGGGLVQAGGSLRLSCAASGIIFPYYAMGWYRQAPGKERELVAAISIDGSTNYAVSVKGRFTISRDNAKNTVYLQMNSLKPEDTAVYYCNTTAFSTYQVGFLYDYWGQGTQVTVSS | low polyreactivity |
| QVQLVESGGGLVQAGGSLRLSCAASGIIFPYYAMGWYRQAPGKESELVAAISQSGGSTYYADSVKGRFTISRDNAKNTVFFQMNSVKPEDTAVYYCDKFIPSYHDGDYWGQGTQVTVSS | low polyreactivity |
| QVQLVESGGGLVQAGGSLRLSCAASGIIFPYYTMGGYRQAPGKERELVARITNGGRTYSADSVKGRFTISRDKAKNTVYLQMNSLKPEDTAVYYCAASWGRRKPRMDYWGQGTQVTVSS | high polyreactivity |
| QVQLVESGGGLVQAGGSLRLSCAASGIIFQIYAKGWYRQAPGKERELVAAISGGGNTDYADSVKGRFTISRDNAKNTVYLQMNSLKPEDTAVYYCAADFVDWVWSRYGLFEHDYWGQGTQVTVSS | low polyreactivity |
| QVQLVESGGGLVQAGGSLRLSCAASGIIFQQYAMGWYRQAPGKERELVAAITYSGDGTYYADSVKGRFTISRDNANNTVYLQMNSLKPEDTAVYYCAAYPRDPYKEYDYWGQGTQVTVSS | low polyreactivity |
| QVQLVESGGGLVQAGGSLRLSCAASGIIFQRNDMGWYRQAPGKERELVANIRDGGITYADSVKGRFTISRDNAKNTVYLQMNSLKPEDTAVYYCARDDTSPGYCDQSSNAAYYYWGQGTQVTVSS | low polyreactivity |
| QVQLVESGGGLVQAGGSLRLSCAASGIIFQSYTMGWYRQAPGKERELVAAIDSGGSTYYADSVKGRFTISRDNAKNTVYVQMNSLKPEDSAVYYCATDYPLYWSTLYDYDYWGQGTQVTVSS | low polyreactivity |
| QVQLVESGGGLVQAGGSLRLSCAASGIIFRAYAMGWYRPAPGKERELVAAISWSGGSTYYADSVKGRFTISRDNAKNTVYLQMNSLKPEDTAVYYCAAESLVYDFDYWGQGTQVTVSS | high polyreactivity |
